# Biological target: MaxiK channel of rat bladder detrusor smooth muscle (endogenous) (rat) (UniProt Q62976)
# Assay: cell-based or functional assay
# UniProt Q62976, sequence (Q62976 whole entry): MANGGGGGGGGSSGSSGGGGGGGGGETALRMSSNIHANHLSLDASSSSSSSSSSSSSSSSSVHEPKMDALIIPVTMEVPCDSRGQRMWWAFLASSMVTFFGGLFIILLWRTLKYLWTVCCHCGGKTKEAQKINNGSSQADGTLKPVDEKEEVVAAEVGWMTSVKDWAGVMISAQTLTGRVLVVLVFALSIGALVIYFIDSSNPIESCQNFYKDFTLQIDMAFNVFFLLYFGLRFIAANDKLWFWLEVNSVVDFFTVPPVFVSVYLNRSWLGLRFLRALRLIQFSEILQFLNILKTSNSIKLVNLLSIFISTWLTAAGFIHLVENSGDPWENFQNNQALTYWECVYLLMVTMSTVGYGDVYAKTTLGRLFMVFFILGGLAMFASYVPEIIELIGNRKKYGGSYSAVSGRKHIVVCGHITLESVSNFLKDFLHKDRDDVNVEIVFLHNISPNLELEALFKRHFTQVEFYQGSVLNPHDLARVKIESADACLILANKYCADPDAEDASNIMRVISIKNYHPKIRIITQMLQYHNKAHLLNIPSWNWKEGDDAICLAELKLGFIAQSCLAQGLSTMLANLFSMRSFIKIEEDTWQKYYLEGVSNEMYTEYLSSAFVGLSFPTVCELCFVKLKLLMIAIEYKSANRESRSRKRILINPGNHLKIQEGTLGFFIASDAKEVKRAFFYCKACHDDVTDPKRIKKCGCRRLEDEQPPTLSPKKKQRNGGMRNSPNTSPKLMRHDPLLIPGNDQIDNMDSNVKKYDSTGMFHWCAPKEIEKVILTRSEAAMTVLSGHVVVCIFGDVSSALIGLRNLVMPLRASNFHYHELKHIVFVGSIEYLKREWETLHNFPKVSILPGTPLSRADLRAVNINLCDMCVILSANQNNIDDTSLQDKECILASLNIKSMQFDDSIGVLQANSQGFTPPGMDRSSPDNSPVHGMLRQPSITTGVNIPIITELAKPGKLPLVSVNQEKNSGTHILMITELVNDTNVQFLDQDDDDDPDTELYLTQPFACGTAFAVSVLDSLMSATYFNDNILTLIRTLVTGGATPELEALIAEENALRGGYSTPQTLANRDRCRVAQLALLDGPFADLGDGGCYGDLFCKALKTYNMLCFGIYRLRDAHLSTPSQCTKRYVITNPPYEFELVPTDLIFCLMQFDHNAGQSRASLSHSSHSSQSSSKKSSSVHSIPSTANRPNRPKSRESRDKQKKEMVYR
substance,measurement,value
iberiotoxin (IBTX) (from UniProt P24663 1-37) (peptide),"outward current in response to applied voltage, single whole cell patch clamp of detrusor cells before and after 300 nM IBTX",> 50%
